In the DeepSol protein solubility set:

Experiment: soluble on expression in E. coli; label from the status in PepcDB or PDB records

Sequence | soluble on expression in E. coli
SLENLATAPVNQIQETISDNCVVIFSKTSCSYCTMAKKLFHDMNVNYKVVELDLLEYGNQFQDALYKMTGERTVPRIFVNGTFIGGATDTHRLHKEGKLLPLVHQCYLKKSKRKEFQ | soluble
MLLCDTNIWLALALSGHVHHRASRAWLDTINAPGVIHFCRATQQSLLRLLTNRTVLGAYGSPPLTNREAWAAYAAFLDDDRIVLAGAEPDGLEAQWRAFAVRQSPAPKVWMDAYLAAFALTGGFELVTTDTAFTQYGGIELRLLAK | not soluble
MSLHQRILSEVEGHILSGDWPPGYRIPFEHELTEQYGCSRMTVNKALSELVKRGLIERRRKSGSYVSFPQVQSAVMEIHDVKREVQSLGLDYAYRLGERAVRKMRAGDEGRIDLPVSSRLLDVTCRHFAGGRVFCLEERVINLSAVPEAETETFETAAPGSWLLGKVPWSTAEHRIRAVAASRPTAQALEIAVGAACLVIERRTWSGGVPVTSVLLTYPGDRHELVAEFAPSAPA | not soluble
MGSDKIHHHHHHMNYKITTLAENSVYGKGLQGEHGLSLLVEAGEHKVLFDTGASDLFLRNARLLGLDLSDVEYVVLSHGHRDHTGGLYAFLKMNSVAKVVCKREVFRKKFKNERENGMLHPEALDKSRFWLVDETTEIVPGVFAFPDVKVVDRNDTHFEHFFTEIEGEMRPDTFEDELALVLKGEKSLSVLSACSHRGITNIIRAVQNAFPGLGLKLVMGGFHIHNAEEEKFNVISAFLGMKLPKRLGVCHCTGIDKYALFRQQFNDRVFYNYTGWVETI | not soluble
MGHHHHHHSHMYAAGLGMLEPTKEPLKPLSAAEKIASIGQTATMSPDMNTCTSDQFQESLPPVQFDWSSSGLTNPLDGVDPELYELTTSKLEISTSSLKVTDAFARLMSTVEKTSTSTSRKPKREEHLSEEAIKVIAGLPDLTFMHAKVLMFPATLTPSTSSQEKADG | not soluble
MGHHHHHHSHLEGPDCCFKSTVAAKLSKELKYPIIKGSSFELAKSGNEKLFEHFNKLADEDNVIIDRFVYSNLVYAKKFKDYSILTERQLRFIEDKIKAKAKVVYLHADPSVIKKRLRVRGDEYIEGKDIDSILELYREVMSNAGLHTYSWDTGQWSSDEIAKDI | not soluble
MGSDKIHHHHHHDNNVVVLNGSGRSGSNGYAFYKWLLINHPEFNVTLVEPWPSSHLKWETWQKIGAARYVITTHQPFKVRKHQINVQLWHGVPLKRMGIMANNTRYKDNKRNEKLWHKNADIVASSSDLYETLMSACMAIESKKYQKLGFPRLDLLSKPVISKKELLKDLFDQEDEQAAIGIYMPTFRYELEDKSIMQKIKEGNFFAFADFDGEKLNKELKKRHQYLIVKLHPYEMRLFDNFKSQYSNISFLNNDYLFDHNYDLYELLGDTDFLMTDFSSIYFDYLHLNKPIVFVTNFLKQYEKTRGLLMGPYSEITPGISVNSEQELINNLDHLDNQQIVNRRIYWLNLTNQVHGDSYCENVFKYMTQEYRG | not soluble
ANKMALLIDGPNMLRKEFNVDLDKVRDALEQFGDIVVGRVYLNQYASDKLIEAIANQGFEPRISAGDVDVEMAVEGTELIFNKNIDTIVYMTRDADFLPAIRKAKERGKQIIVVGAEPGFSTAIQNIADHVIRVEEDFE | not soluble
GSMEPPNLYPVKLYVYDLSKGLARRLSPIMLGKQLEGIWHTSIVVHKDEFFFGSGGISSCPPGGTLLGPPDSVVDVGSTEVTEEIFLEYLSSLGESLFRGEAYNLFEHNCNTFSNEVAQFLTGRKIPSYITDLPSEVLSTPFGQALRPLLDSIQIQPPGGSSVGRPNGQS | soluble
MGSDKIHHHHHHMKHESTKIPLVIFMHIPKTGGITLRNILDQQYRSEHILRLPQKNKLDNLLQKKGANIKKLQCVYGHHRFGVHEYFQQPFTYITMLRHPVERIISTYYFILQNERNRMHQKVKPLTFEQFVQSTDPDLQVPLTNHQTRYLSGERKPNLNKALQHMDTHFSVVGITELYNESLFIMKKKLGWDHISYQKKNVTYYRYRQTDIGLDTIEIIKRKNPLDLHLYETAKEKLQEHIKRLDSGARKELQQFLQDQNGFGPHG | not soluble
MEEKDWEGSPLSENEAGLLCYDDEEYQFGGPAPKLQFRYLSEIGELQLLGDEDDVVISLKDLYGEIAEGKYGCCWENYEVYRYLKGLGYILGRHGVPWTTKYAVNTTPSDEDESLCAAEFFQDRDSVTKLLSDMHICDARPVFDVYLPNSQFKKSSPGEPSFVTCFSG | soluble
GLFDKLKSLVSDDKKDTGTIEIIAPLSGEIVNIEDVPDVVFAEKIVGDGIAIKPTGNKMVAPVDGTIGKIFETNHAFSIESDSGVELFVHFGIDTVELKGEGFKRIAEEGQRVKVGDTVIEFDLPLLEEKAKSTLTPVVISNMDEIKELIKLSGSVTVGETPVIRIKK | soluble
ELIRVGVVGTGYMGENHVRIYSEMEDVRLIGISDPNSSRVKELAARYETLPFSDHKKMFGKTNLDAISIAAPTTLHCPIVLDALEAGVDVLVEKPIADSVENATAMIESAEEMDRHLMVGHIERFNPAVLKLKEVVDSGVLGKIVSV | not soluble
MNLRSVFTVEQQRILQRYYENGMTNQSKNCFQLILQCAQETKLDFSVVRTWVGNKRRKMSSKNSESGTATTGTSLSAPDITVRNVVNIARPSSQQSSWTSANNDVIVTGIYSPASSSSRQGTNKHTDTQITEAHKIPIQKTATKNDTEFQLHIPVQRQVAHCKNASLLLGEKTIILSRQTSVLNAGNSVFNHAKKNYGNSSVQASEMTVPQKPSVCHRPCKIEPVGIQRSYKPEHTGPALHNLCGQKPTIRDPYCRTQNLEIREVFSLAVSDYPQRILGGNAPQKPSSAEGNCLSIAMETGDAEDEYAREEELASMRAQIPSYSRFYESGSSLRAENQSTTLPGPGRNMPNSQMVNIRDMSDNVLYQNRNYHLTPRTSLHTASSTMYSNTNPLRSNFSPHFASSNQLRLSQNQNNYQISGNLTVPWITGCSRKRALQDRTQFSDRDLATLKKYWDNGMTSLGSVCREKIEAVATELNVDCEIVRTWIGNRRRKYRLMGIEVPPPRGGPADFSEQPESGSLSALTPGEEAGPEVGEDNDRNDEVSICLSEGSSQEEPNEVVPNDARAHKEEDHHAVTTDNVKIEIIDDEESDMISNSEVEQVNSFLDYKNEEVKFIENELEIQKQKYFKLQTFVRSLILAMKADDKEQQQALLSDLPPELEEMDFNHASLEPDDTSFSVSSLSEKNVSESL | soluble
MSLNYKNYTVMLVDDEQPILNSLKRLIKRLGCNIITFTSPLDALEALKGTSVQLVISDMRMPEMGGEVFLEQVAKSYPDIERVVISGYADAQATIDAVNRGKISRFLLKPWEDEDVFKVVEKGLQLAFLREENLRLQEETEAKNKQEGHHHHHH | soluble
MEFKVEDDRISLYADSKRVSWVLYRKHSGEIELLATFTAKGEEGKGYASKVVGEALNYARGFEKIKVSCPYIKSWIEKHGFDRDVEYTKLLEFKEAVEKFNRFHSPEAVAEFMKEEGEVVYVRFTGPFCVSCGVYDYFEDLTQDAEVLDYEEVEDGFIVRYRLL | not soluble
MGSDKIHHHHHHMHSHHPISHDVVISGAGPVGLFLACELRLAGLSVLILEKAEDPRSPLKRLPFGMRGLSAPTIEAFHRRDLLDAIAPPTTKDGSGKLVAAHWMQQPRRPGGHFAGIQFHLDAVDSSKWPYRLPGPAGTSMAVEMEQLETMLATRATAMGVEIRRGLGVEIFDQSDEDVTIRAGGEIFRARWLVGCDGGRSTVRKLGGFAFTGTDAEFTGYSVEVEIADPDALSPGRHYTPTGMYTYSRPGTIAMVEFDGATFHRTEPITLEHVQAVLRRVSGTDVTLTALRLATTWTDRAYQASAYRNGRVLLAGDAAHIHSPLGGQGLNLGIGDAMNLGWKLAATIRGDAPAGLLDSYFDERHPVGAQILDWSRAQVALMRPSRSSRALEAIIRDLIDTRDGATYFAERVWGVSLRYDVGGSHPLVGRSAPDFELADGTRPGERLRTGQALLLDFAARPALQALASRWSGRIAYVAEDARERLGLSALLVRPDGVVAWAADGEPDLEGAAQAASRWFGEPGQVAAYAKGTV | not soluble
MSLSERTYFPPAEEGELSKVESFLAVYKDRHGTEARPQFFLSGSNEGEQIPLPKELYEILVRTVEALASGKAVTIHPNDPLVTTQQAAELLGVSRPTVVKLIEDGKLEATKVTRHRRIKLEDVLRYQERQTIEQLDFLASTTSDAPALTESEYVSVRKMLANKRKESRIG | not soluble
